Measured values published in US20070036806A1.

Molecular target: human GLP-1 receptor (human) (UniProt P43220)
Assay: cell-based or functional assay

Sequence of human GLP-1 receptor (human) (P43220 24-463): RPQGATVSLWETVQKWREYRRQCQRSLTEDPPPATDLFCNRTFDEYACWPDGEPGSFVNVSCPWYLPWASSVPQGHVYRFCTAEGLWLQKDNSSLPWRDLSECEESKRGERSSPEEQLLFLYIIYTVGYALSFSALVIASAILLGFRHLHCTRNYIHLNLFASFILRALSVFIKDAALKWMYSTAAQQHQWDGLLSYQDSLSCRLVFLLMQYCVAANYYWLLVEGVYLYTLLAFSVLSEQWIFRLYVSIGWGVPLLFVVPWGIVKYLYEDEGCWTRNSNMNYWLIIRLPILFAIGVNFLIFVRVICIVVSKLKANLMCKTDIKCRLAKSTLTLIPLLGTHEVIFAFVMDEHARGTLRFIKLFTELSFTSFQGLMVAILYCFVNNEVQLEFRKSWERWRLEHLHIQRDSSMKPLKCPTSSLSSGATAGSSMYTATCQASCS
Sequence of Gly^8-Glu^22-Gly^36-GLP-1(7-37)-2L-IgG4(S228P, F234A, L235A) (Fc fusion) (main): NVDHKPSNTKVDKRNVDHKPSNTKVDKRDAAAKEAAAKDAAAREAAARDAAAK
Sequence of Gly^8-Glu^22-GLP-1(7-37)-1.5L-IgG4(S228P, F234A, L235A) (Fc fusion) (main): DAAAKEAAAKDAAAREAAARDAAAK

Substance	Activity (from EC50, relative to Val^8-GLP-1(7-37)OH); CRE-BLAM (beta-lactamase) reporter in HEK-293 cells expressing the human GLP-1 receptor	Activity (from EC50, relative to Val^8-GLP-1(7-37)OH, corrected for the 2-fold molarity of dimers); CRE-Luciferase reporter in HEK-293 cells stably expressing the human GLP-1 receptor
Gly^8-Glu^22-GLP-1(7-37)-1.5L-IgG4(S228P, F234A, L235A) (Fc fusion)	314%	595%
Gly^8-Glu^22-GLP-1(7-37)-1L-IgG4(S228P, F234A, L235A) (Fc fusion)	468%	1120%
Gly^8-Glu^22-GLP-1(7-37)-2L-IgG4(S228P, F234A, L235A) (Fc fusion)	301%	535%
Gly^8-Glu^22-Gly^36-GLP-1(7-37)-1L-IgG4(S228P, F234A, L235A) (Fc fusion)		417%
Gly^8-Glu^22-Gly^36-GLP-1(7-37)-2L-IgG4(S228P, F234A, L235A) (Fc fusion)	441%	398%
